{"source": "IntAct's records for PubMed 18769030", "parents": {"B1": {"name": "Solute carrier family 12 member 5 (Rattus norvegicus (Rat)), Q63633 (parent)", "chain": "MSRRFTVTSLPPAASAASADPESRRHSVADPRRLPREDVKGDGNPKESSPFINSTDTEKGREYDGRNMALFEEEMDTSPMVSSLLSGLANYTNLPQGSKEHEEAENNEGGKKKPVQAPRMGTFMGVYLPCLQNIFGVILFLRLTWVVGIAGIMESFCMVFICCSCTMLTAISMSAIATNGVVPAGGSYYMISRSLGPEFGGAVGLCFYLGTTFAGAMYILGTIEILLAYLFPAMAIFKAEDASGEAAAMLNNMRVYGTCVLTCMATVVFVGVKYVNKFALVFLGCVILSILAIYAGVIKSAFDPPNFPICLLGNRTLSRHGFDVCAKLAWEGNETVTTRLWGLFCSSRLLNATCDEYFTRNNVTEIQGIPGAASGLIKENLWSSYLTKGVIVERRGMPSVGLADGTPVDMDHPYVFSDMTSYFTLLVGIYFPSVTGIMAGSNRSGDLRDAQKSIPTGTILAIATTSAVYISSVVLFGACIEGVVLRDKFGEAVNGNLVVGTLAWPSPWVIVIGSFFSTCGAGLQSLTGAPRLLQAISRDGIVPFLQVFGHGKANGEPTWALLLTACICEIGILIASLDEVAPILSMFFLMCYMFVNLACAVQTLLRTPNWRPRFRYYHWTLSFLGMSLCLALMFICSWYYALVAMLIAGLIYKYIEYRGAEKEWGDGIRGLSLSAARYALLRLEEGPPHTKNWRPQLLVLVRVDQDQNVVHPQLLSLTSQLKAGKGLTIVGSVLEGTFLDNHPQAQRAEESIRRLMEAEKVKGFCQVVISSNLRDGVSHLIQSGGLGGLQHNTVLVGWPRNWRQKEDHQTWRNFIELVRETTAGHLALLVTKNVSMFPGNPERFSEGSIDVWWIVHDGGMLMLLPFLLRHHKVWRKCKMRIFTVAQMDDNSIQMKKDLTTFLYHLRITAEVEVVEMHESDISAYTYEKTLVMEQRSQILKQMHLTKNEREREIQSITDESRGSIRRKNPANTRLRLNVPEETACDNEEKPEEEVQLIHDQSAPSCPSSSPSPGEEPEGEGETDPEKVHLTWTKDKSAAQKNKGPSPVSSEGIKDFFSMKPEWENLNQSNVRRMHTAVRLNEVIVNKSRDAKLVLLNMPGPPRNRNGDENYMEFLEVLTEQLDRVMLVRGGGREVITIYS"}}}
{"variants_of": "B1", "settings": "with mycb2_mouse Mycbp2, Q7TPH6"}
{"variant": "R1104A", "effect of a mutation on the interaction": "disrupting interaction"}
{"variant": "N1105E", "effect of a mutation on the interaction": "disrupting interaction"}
{"variants_of": "B1", "settings": "with mycb2_mouse Mycbp2, Q7TPH6", "remark": "another data set of the same source"}
{"variant": "R1104A", "effect of a mutation on the interaction": "decreasing interaction"}
